Laboratory results published in the Human Domainome abundance scans (Beltran et al. 2025).
± gives the uncertainty stated by the source.

B1: Ankyrin repeat and SAM domain-containing protein 6, residues 774 to 836; numbered along this chain, Q68DC2 (parent)
chain: DEDELTGILKKLSLEKYQPIFEEQEVDMEAFLTLTDGDLKELGIKTDGSRQQILAAISELNAG

Variants of: B1
Assay: abundance fitness (aPCA) (normalised: wild type 0, dead -1); higher = more abundant; growth selection in yeast, the domain comes from the species named
Conditions: Homo sapiens
E25Q showed an abundance fitness of -0.204 ± 0.21. Variant E25G has an abundance fitness of -0.023 ± 0.078. For E25D, the abundance fitness was -0.159 ± 0.063. E25S showed an abundance fitness of -0.08 ± 0.041. E25W gave an abundance fitness of -0.449 ± 0.17. E25H gave an abundance fitness of -0.048 ± 0.062. Work on E25F yielded an abundance fitness of -0.166 ± 0.051. E25Y gave an abundance fitness of -0.262 ± 0.05. In the case of E25P, the abundance fitness is reported as -0.653 ± 0.14. E25K gave an abundance fitness of 0.301 ± 0.15. For E25R, the abundance fitness was -0.147 ± 0.069. In the case of E25V, the abundance fitness is reported as -0.21 ± 0.061. E25N gave an abundance fitness of 0.006 ± 0.051. E25L gave an abundance fitness of -0.293 ± 0.062. E25A gave an abundance fitness of 0.023 ± 0.11. In the case of E25I, the abundance fitness is reported as -0.281 ± 0.06. With E25M the abundance fitness was -0.038 ± 0.084. For E25C, the abundance fitness was -0.073 ± 0.057. For E25T, the abundance fitness was -0.412 ± 0.082. For E23Q, the abundance fitness was -0.17 ± 0.066. E23T gave an abundance fitness of -0.231 ± 0.062. In the case of E23S, the abundance fitness is reported as -0.168 ± 0.047. Variant E23V has an abundance fitness of -0.593 ± 0.068. E23R showed an abundance fitness of -0.06 ± 0.039. Work on E23Y yielded an abundance fitness of -0.543 ± 0.07. L32Y showed an abundance fitness of -0.334 ± 0.073. Work on L32M yielded an abundance fitness of -0.083 ± 0.065. In the case of L32E, the abundance fitness is reported as -0.271 ± 0.071. Variant L32N has an abundance fitness of -0.295 ± 0.071. For L32D, the abundance fitness was -0.408 ± 0.068. With L32T the abundance fitness was -0.157 ± 0.06. With L32G the abundance fitness was -0.251 ± 0.048. For L32P, the abundance fitness was -0.199 ± 0.056. In the case of L32A, the abundance fitness is reported as -0.097 ± 0.055. In the case of L32I, the abundance fitness is reported as -0.181 ± 0.042. For L32W, the abundance fitness was -0.536 ± 0.058. Variant L32V has an abundance fitness of -0.103 ± 0.049. Variant L32R has an abundance fitness of 0.039 ± 0.043. L32K gave an abundance fitness of 0.264 ± 0.059. Work on A30D yielded an abundance fitness of -0.273 ± 0.063. Variant A30I has an abundance fitness of -0.164 ± 0.081. Work on A30M yielded an abundance fitness of -0.075 ± 0.06. A30E showed an abundance fitness of -0.073 ± 0.062. Variant A30H has an abundance fitness of 0.037 ± 0.06. In the case of A30P, the abundance fitness is reported as -0.784 ± 0.088. In the case of A30W, the abundance fitness is reported as -0.464 ± 0.06. For A30C, the abundance fitness was -0.02 ± 0.084. For A30Y, the abundance fitness was -0.218 ± 0.074. For A30L, the abundance fitness was -0.089 ± 0.048. Variant A30K has an abundance fitness of 0.001 ± 0.065. Work on A30N yielded an abundance fitness of -0.049 ± 0.068. Variant A30V has an abundance fitness of -0.093 ± 0.047. A30R gave an abundance fitness of 0.096 ± 0.035. With A30T the abundance fitness was -0.125 ± 0.055. In the case of A30F, the abundance fitness is reported as -0.246 ± 0.072. Variant A30S has an abundance fitness of -0.015 ± 0.044. Work on F31H yielded an abundance fitness of -0.586 ± 0.088. Work on F31V yielded an abundance fitness of -0.342 ± 0.05. Work on F31A yielded an abundance fitness of -0.37 ± 0.05. Work on F31W yielded an abundance fitness of -0.432 ± 0.066. Variant F31G has an abundance fitness of -0.443 ± 0.044. Work on F31C yielded an abundance fitness of -0.797 ± 0.11. With F31L the abundance fitness was -0.305 ± 0.063. F31E gave an abundance fitness of -0.384 ± 0.062. Variant F31M has an abundance fitness of -0.329 ± 0.07. Variant F31K has an abundance fitness of -0.362 ± 0.064. In the case of F31T, the abundance fitness is reported as -0.638 ± 0.058. F31N gave an abundance fitness of -0.441 ± 0.07. In the case of F31R, the abundance fitness is reported as -0.426 ± 0.047. F31P showed an abundance fitness of -0.469 ± 0.07. In the case of F31D, the abundance fitness is reported as -0.51 ± 0.056. In the case of F31Y, the abundance fitness is reported as -0.563 ± 0.068. F31I gave an abundance fitness of -0.343 ± 0.058. For F31S, the abundance fitness was -0.513 ± 0.056. Work on Q24D yielded an abundance fitness of -0.369 ± 0.07. With Q24R the abundance fitness was -0.096 ± 0.044. Q24V gave an abundance fitness of -0.442 ± 0.042. In the case of Q24F, the abundance fitness is reported as -0.25 ± 0.11. Q24I showed an abundance fitness of -0.47 ± 0.11. Variant Q24A has an abundance fitness of -0.04 ± 0.041. Variant Q24W has an abundance fitness of -0.458 ± 0.081. Q24S gave an abundance fitness of -0.033 ± 0.039. Q24H showed an abundance fitness of -0.261 ± 0.12. With Q24K the abundance fitness was -0.042 ± 0.081. Q24P showed an abundance fitness of -0.925 ± 0.11. Q24Y gave an abundance fitness of -0.112 ± 0.11. Work on Q24G yielded an abundance fitness of -0.128 ± 0.042. For Q24M, the abundance fitness was -0.165 ± 0.1. Q24T gave an abundance fitness of -0.257 ± 0.062. Work on D27H yielded an abundance fitness of -0.282 ± 0.075. D27Y gave an abundance fitness of -0.729 ± 0.077. For D27C, the abundance fitness was -0.376 ± 0.075. D27F gave an abundance fitness of -1.25 ± 0.25. In the case of D27L, the abundance fitness is reported as -0.895 ± 0.054. D27S showed an abundance fitness of -0.075 ± 0.048. In the case of D27T, the abundance fitness is reported as 0.001 ± 0.044. D27K gave an abundance fitness of -0.212 ± 0.051. In the case of D27I, the abundance fitness is reported as -0.827 ± 0.096. D27R showed an abundance fitness of -0.215 ± 0.044. D27E gave an abundance fitness of -0.294 ± 0.063. For D27P, the abundance fitness was -0.483 ± 0.054. Work on D27V yielded an abundance fitness of -0.988 ± 0.045. For D27A, the abundance fitness was -0.47 ± 0.042. D27Q showed an abundance fitness of -0.44 ± 0.073. Work on D27W yielded an abundance fitness of -0.857 ± 0.11. Variant T33K has an abundance fitness of 0.141 ± 0.05. For T33G, the abundance fitness was -0.057 ± 0.041. For T33M, the abundance fitness was -0.048 ± 0.098. For T33F, the abundance fitness was -0.642 ± 0.17. T33E gave an abundance fitness of -0.032 ± 0.095. With T33I the abundance fitness was -0.507 ± 0.15. For T33N, the abundance fitness was -0.053 ± 0.098. Work on T33D yielded an abundance fitness of -0.122 ± 0.071. For T33H, the abundance fitness was -0.012 ± 0.21. Work on T33A yielded an abundance fitness of -0.037 ± 0.053. For V26E, the abundance fitness was -0.532 ± 0.071. In the case of V26S, the abundance fitness is reported as -0.649 ± 0.052. In the case of V26F, the abundance fitness is reported as -0.177 ± 0.082. V26Q gave an abundance fitness of -0.589 ± 0.061. With V26G the abundance fitness was -0.539 ± 0.041. For V26A, the abundance fitness was -0.542 ± 0.049. Variant V26C has an abundance fitness of -0.353 ± 0.06. V26Y gave an abundance fitness of -0.327 ± 0.099. V26D gave an abundance fitness of -0.821 ± 0.14. Work on V26H yielded an abundance fitness of -0.74 ± 0.097. With V26M the abundance fitness was -0.024 ± 0.07. With V26K the abundance fitness was -0.425 ± 0.063. V26I showed an abundance fitness of -0.056 ± 0.066. Variant V26N has an abundance fitness of -0.664 ± 0.11. V26W gave an abundance fitness of -0.405 ± 0.047. Variant V26R has an abundance fitness of -0.588 ± 0.048. V26L gave an abundance fitness of -0.145 ± 0.038. In the case of V26T, the abundance fitness is reported as -0.479 ± 0.081. In the case of M28S, the abundance fitness is reported as -0.094 ± 0.054. M28N gave an abundance fitness of -0.315 ± 0.11. M28D gave an abundance fitness of -0.466 ± 0.097. Work on M28C yielded an abundance fitness of -0.319 ± 0.072. With M28V the abundance fitness was -0.219 ± 0.054. M28I showed an abundance fitness of -0.202 ± 0.063. Work on M28F yielded an abundance fitness of -0.132 ± 0.07. For M28H, the abundance fitness was -0.218 ± 0.099. For M28T, the abundance fitness was 0.007 ± 0.053. Variant M28P has an abundance fitness of -0.168 ± 0.055. For M28Y, the abundance fitness was -0.106 ± 0.07. Work on M28K yielded an abundance fitness of -0.025 ± 0.061. Variant M28G has an abundance fitness of -0.213 ± 0.043. Variant M28L has an abundance fitness of -0.155 ± 0.04. In the case of M28A, the abundance fitness is reported as -0.055 ± 0.056. Variant M28E has an abundance fitness of -0.437 ± 0.097. With M28Q the abundance fitness was -0.29 ± 0.073. In the case of M28R, the abundance fitness is reported as -0.159 ± 0.039. In the case of E29T, the abundance fitness is reported as -0.123 ± 0.046. With E29Y the abundance fitness was -0.417 ± 0.086. Variant E29L has an abundance fitness of -0.51 ± 0.046. For E29F, the abundance fitness was -0.648 ± 0.097. E29S gave an abundance fitness of -0.228 ± 0.043. With E29G the abundance fitness was -0.162 ± 0.047. Variant E29P has an abundance fitness of -0.105 ± 0.056. Variant E29H has an abundance fitness of -0.356 ± 0.13. Work on E29K yielded an abundance fitness of 0.099 ± 0.039. Variant E29V has an abundance fitness of -0.334 ± 0.051. For E29C, the abundance fitness was -0.338 ± 0.065. E29A gave an abundance fitness of -0.025 ± 0.046. E29M showed an abundance fitness of -0.318 ± 0.075. E29D gave an abundance fitness of -0.107 ± 0.05. E29Q showed an abundance fitness of -0.097 ± 0.049. Variant E29N has an abundance fitness of -0.32 ± 0.22.
